According to paper PMC10540216, “Activity Guided Azide-methyllysine Photo-trapping for Substrate Profiling of Lysine Demethylases” (Journal of the American Chemical Society, 2023):
Entries after “also recorded” stand apart in the source; their conditions may differ.

Legend:
[1] = system: CBX1-eIF4A3 interaction; test: Interactome pull-down of eIF4A3 using recombinant CBX1 from HEK293T nuclear extracts; type: cell-based, human; details: 6xHis CBX1, Ni-NTA beads
[2] = system: eIF4A3 trimethylation in HEK293T cells; test: Immunoprecipitation of eIF4A3 from HEK293T cells and Kme3 immunoblot; type: cell-based, human; details: eIF4A3 IP, pan-Kme3 immunoblot, vs control vector or control siRNA
[3] = system: CBX1-eIF4A3 interaction; test: Immunoprecipitation using CBX1 antibody from HEK293T cells, eIF4A3 immunoblot; type: cell-based, human; details: vs control vector
Protocol: concentration. The samples were then heated to 65°C for 15 minutes and loaded into a 4-12% polyacrylamide gel for Western blotting.
22. Immunoprecipitation using eIF4A3 and CBX1 antibodies […]
Then 4 mg of nuclear extracts were added and left mixing overnight at 4°C. The following day, the beads were pelleted, and the supernatant was removed.
The beads were washed twice with 50 mM Tris pH 7.5, 100 mM KCl, 0.1% Triton X. Laemmli dye (4X) was added to “elution buffer” from the Protein A Dynabead kit for a final 1X concentration. Each sample received 60 µL of the denaturing elution solution and was then incubated at 65°C for 15 minutes. The beads were pelleted on the magnetic rack and the supernatants were collected to perform Western blots. […]
Each microcentrifuge tube received an CBX1 antibody mixture containing 10 µL antibody (ProteinTech cat. # 10241-2-AP). The antibodies […]
were incubated with the beads using gentle agitation for 1 hour at 4°C. The beads were then washed 2x with conjugation buffer (200 µl of 20 mM sodium phosphate, 0.15M NaCl). BS3 crosslinking solution (250 µl of 5 mM BS3 in conjugation buffer) was added to each aliquot and incubated at room temperature for 20 minutes. The supernatant was removed and a second round of BS3 solution was administered for 5 minutes at room temperature. […]

[4] = system: KDM4A-I71AzF; test: CASI: photo-crosslinking with HEK293T cell extracts, StrepTactin enrichment and LC-MS/MS proteomics; type: binding, human; details: sheet "Final results but with 0.01";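 note: lysates from HEK293T cells pretreated with a KDM4 inhibitor to raise proteome methylation, affinity-purified after ±UV, gel-resolved, trypsin-digested, with exclusive unique peptides per protein averaged per condition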

B1: G9a: full-length G9a methyltransferase expressed in HEK293T cells (protein, UniProt Q96KQ7 1-1210, looked up)
chain: MAAAAGAAAAAAAEGEAPAEMGALLLEKETRGATERVHGSLGDTPRSEETLPKATPDSLEPAGPSSPASVTVTVGDEGADTPVGATPLIGDESENLEGDGDLRGGRILLGHATKSFPSSPSKGGSCPSRAKMSMTGAGKSPPSVQSLAMRLLSMPGAQGAAAAGSEPPPATTSPEGQPKVHRARKTMSKPGNGQPPVPEKRPPEIQHFRMSDDVHSLGKVTSDLAKRRKLNSGGGLSEELGSARRSGEVTLTKGDPGSLEEWETVVGDDFSLYYDSYSVDERVDSDSKSEVEALTEQLSEEEEEEEEEEEEEEEEEEEEEEEEDEESGNQSDRSGSSGRRKAKKKWRKDSPWVKPSRKRRKREPPRAKEPRGVNGVGSSGPSEYMEVPLGSLELPSEGTLSPNHAGVSNDTSSLETERGFEELPLCSCRMEAPKIDRISERAGHKCMATESVDGELSGCNAAILKRETMRPSSRVALMVLCETHRARMVKHHCCPGCGYFCTAGTFLECHPDFRVAHRFHKACVSQLNGMVFCPHCGEDASEAQEVTIPRGDGVTPPAGTAAPAPPPLSQDVPGRADTSQPSARMRGHGEPRRPPCDPLADTIDSSGPSLTLPNGGCLSAVGLPLGPGREALEKALVIQESERRKKLRFHPRQLYLSVKQGELQKVILMLLDNLDPNFQSDQQSKRTPLHAAAQKGSVEICHVLLQAGANINAVDKQQRTPLMEAVVNNHLEVARYMVQRGGCVYSKEEDGSTCLHHAAKIGNLEMVSLLLSTGQVDVNAQDSGGWTPIIWAAEHKHIEVIRMLLTRGADVTLTDNEENICLHWASFTGSAAIAEVLLNARCDLHAVNYHGDTPLHIAARESYHDCVLLFLSRGANPELRNKEGDTAWDLTPERSDVWFALQLNRKLRLGVGNRAIRTEKIICRDVARGYENVPIPCVNGVDGEPCPEDYKYISENCETSTMNIDRNITHLQHCTCVDDCSSSNCLCGQLSIRCWYDKDGRLLQEFNKIEPPLIFECNQACSCWRNCKNRVVQSGIKVRLQLYRTAKMGWGVRALQTIPQGTFICEYVGELISDAEADVREDDSYLFDLDNKDGEVYCIDARYYGNISRFINHLCDPNIIPVRVFMLHQDLRFPRIAFFSSRDIRTGEELGFDYGDRFWDIKSKYFTCQCGSEKCKHSAEAIALEQSRLARLDPHPELLPELGSLPPVNT
modifications: full-length
notes: full-length G9a methyltransferase expressed in HEK293T cells
eIF4A3 enrichment by recombinant CBX1 pull-down [1]: maximum enrichment of eIF4A3 | eIF4A3 Kme3 level [2]: increased Kme3 compared to the control vector; also recorded: considerable increase in Kme3 on eIF4A3 | eIF4A3 enrichment by endogenous CBX1 (IP) [3]: increased in G9a-transfected cells; also recorded: robust enrichment of eIF4A3 by CBX1

B2: KDM4A: full-length wild-type KDM4A overexpressed in HEK293T cells (protein, UniProt O75164 1-1064, looked up)
chain: MASESETLNPSARIMTFYPTMEEFRNFSRYIAYIESQGAHRAGLAKVVPPKEWKPRASYDDIDDLVIPAPIQQLVTGQSGLFTQYNIQKKAMTVREFRKIANSDKYCTPRYSEFEELERKYWKNLTFNPPIYGADVNGTLYEKHVDEWNIGRLRTILDLVEKESGITIEGVNTPYLYFGMWKTSFAWHTEDMDLYSINYLHFGEPKSWYSVPPEHGKRLERLAKGFFPGSAQSCEAFLRHKMTLISPLMLKKYGIPFDKVTQEAGEFMITFPYGYHAGFNHGFNCAESTNFATRRWIEYGKQAVLCSCRKDMVKISMDVFVRKFQPERYKLWKAGKDNTVIDHTLPTPEAAEFLKESELPPRAGNEEECPEEDMEGVEDGEEGDLKTSLAKHRIGTKRHRVCLEIPQEVSQSELFPKEDLSSEQYEMTECPAALAPVRPTHSSVRQVEDGLTFPDYSDSTEVKFEELKNVKLEEEDEEEEQAAAALDLSVNPASVGGRLVFSGSKKKSSSSLGSGSSRDSISSDSETSEPLSCRAQGQTGVLTVHSYAKGDGRVTVGEPCTRKKGSAARSFSERELAEVADEYMFSLEENKKSKGRRQPLSKLPRHHPLVLQECVSDDETSEQLTPEEEAEETEAWAKPLSQLWQNRPPNFEAEKEFNETMAQQAPHCAVCMIFQTYHQVEFGGFNQNCGNASDLAPQKQRTKPLIPEMCFTSTGCSTDINLSTPYLEEDGTSILVSCKKCSVRVHASCYGVPPAKASEDWMCSRCSANALEEDCCLCSLRGGALQRANDDRWVHVSCAVAILEARFVNIAERSPVDVSKIPLPRFKLKCIFCKKRRKRTAGCCVQCSHGRCPTAFHVSCAQAAGVMMQPDDWPFVVFITCFRHKIPNLERAKGALQSITAGQKVISKHKNGRFYQCEVVRLTTETFYEVNFDDGSFSDNLYPEDIVSQDCLQFGPPAEGEVVQVRWTDGQVYGAKFVASHPIQMYQVEFEDGSQLVVKRDDVYTLDEELPKRVKSRLSVASDMRFNEIFTEKEVKQEKKRQRVINSRYREDYIEPALYRAIME
modifications: full-length
eIF4A3 enrichment by recombinant CBX1 pull-down [1]: decreased the association | eIF4A3 Kme3 level [2]: significantly reduced the Kme3 level; also recorded: robustly deceases eIF4A3 methylation; also recorded: robust eIF4A3 demethylation | eIF4A3 enrichment by endogenous CBX1 (IP) [3]: decreased in KDM4A-transfected cells; also recorded: reduced it compared to control vector-transfected cells

B3: NU155_HUMAN (protein, UniProt O75694 2-1391, looked up)
Nuclear pore complex protein …: PSSLLGAAMPASTSAAALQEALENAGRLIDRQLQEDRMYPDLSELLMVSAPNNPTVSGMSDMDYPLQGPGLLSVPNLPEISSIRRVPLPPELVEQFGHMQCNCMMGVFPPISRAWLTIDSDIFMWNYEDGGDLAYFDGLSETILAVGLVKPKAGIFQPHVRHLLVLATPVDIVILGLSYANLQTGSGVLNDSLSGGMQLLPDPLYSLPTDNTYLLTITSTDNGRIFLAGKDGCLYEVAYQAEAGWFSQRCRKINHSKSSLSFLVPSLLQFTFSEDDPILQIAIDNSRNILYTRSEKGVIQVYDLGQDGQGMSRVASVSQNAIVSAAGNIARTIDRSVFKPIVQIAVIENSESLDCQLLAVTHAGVRLYFSTCPFRQPLARPNTLTLVHVRLPPGFSASSTVEKPSKVHRALYSKGILLMAASENEDNDILWCVNHDTFPFQKPMMETQMTAGVDGHSWALSAIDELKVDKIITPLNKDHIPITDSPVVVQQHMLPPKKFVLLSAQGSLMFHKLRPVDQLRHLLVSNVGGDGEEIERFFKLHQEDQACATCLILACSTAACDREVSAWATRAFFRYGGEAQMRFPTTLPPPSNVGPILGSPVYSSSPVPSGSPYPNPSFLGTPSHGIQPPAMSTPVCALGNPATQATNMSCVTGPEIVYSGKHNGICIYFSRIMGNIWDASLVVERIFKSGNREITAIESSVPCQLLESVLQELKGLQEFLDRNSQFAGGPLGNPNTTAKVQQRLIGFMRPENGNPQQMQQELQRKFHEAQLSEKISLQAIQQLVRKSYQALALWKLLCEHQFTIIVAELQKELQEQLKITTFKDLVIRDKELTGALIASLINCYIRDNAAVDGISLHLQDICPLLYSTDDAICSKANELLQRSRQVQNKTEKERMLRESLKEYQKISNQVDLSNVCAQYRQVRFYEGVVELSLTAAEKKDPQGLGLHFYKHGEPEEDIVGLQAFQERLNSYKCITDTLQELVNQSKAAPQSPSVPKKPGPPVLSSDPNMLSNEEAGHHFEQMLKLSQRSKDELFSIALYNWLIQVDLADKLLQVASPFLEPHLVRMAKVDQNRVRYMDLLWRYYEKNRSFSNAARVLSRLADMHSTEISLQQRLEYIARAILSAKSSTAISSIAADGEFLHELEEKMEVARIQLQIQETLQRQYSHHSSVQDAVSQLDSELMDITKLYGEFADPFKLAECKLAIIHCAGYSDPILVQTLWQDIIEKELSDSVTLSSSDRMHALSLKIVLLGKIYAGTPRFFPLDFIVQFLEQQVCTLNWDVGFVIQTMNEIGVPLPRLLEVYDQLFKSRDPFWNRMKKPLHLLDCIHVLLIRYVENPSQVLNCERRRFTNLCLDAVCGYLVELQSMSSSVAVQAITGNFKSLQAKLERLH
Fold change (+UV/-UV) [4]: 1.36
